Measurements: paper PMC6279779

Experiments:
[1] = target: soluble domain of Arabidopsis thaliana cytochrome c1 (Arabidopsis thaliana)
[2] = target: soluble domain of Arabidopsis thaliana cytochrome c1 (Arabidopsis thaliana); remark: listed apart in the source

## Homo sapiens E104C cytochrome c mutant (from UniProt P99999 1-105) (natural protein)
[1]
  average distance decay factor (β) of the pCc1–hCc current against the electrochemical gate potential at 200 mV constant bias; minimum at −0.25 V EC gate potential: 0.5 nm^−1
[2]
  distance decay factor (β) of the pCc1–hCc current after addition of wild-type hCc (12.5 μM, without C-terminal cysteine) to the medium, as an inhibition experiment: 3 nm^−1
